Data taken from paper PMC9402430, “Cryo-EM structure of an active bacterial TIR–STING filament complex” (Nature, 2022).
Changes are numbered by the printed parent chain.

Tests used:
[1] = target: T1, SfSTING (Sphingobacterium faecium TIR–STING) (Sphingobacterium faecium, UniProt A0A2T5Y4G4); assay: cryo-EM structure; EMSA; settings: 3x molar c-di-GMP (84 uM); STING CDN-binding pocket at dimer interface; activating ligand
T1 construct: gene cap12; full-length TIR-STING; N-terminal 6xHis fusion, modified pET16, E. coli BL21-CodonPlus(DE3)-RIL; homodimer forming filaments
T1 sequence (A0A2T5Y4G4 1-323): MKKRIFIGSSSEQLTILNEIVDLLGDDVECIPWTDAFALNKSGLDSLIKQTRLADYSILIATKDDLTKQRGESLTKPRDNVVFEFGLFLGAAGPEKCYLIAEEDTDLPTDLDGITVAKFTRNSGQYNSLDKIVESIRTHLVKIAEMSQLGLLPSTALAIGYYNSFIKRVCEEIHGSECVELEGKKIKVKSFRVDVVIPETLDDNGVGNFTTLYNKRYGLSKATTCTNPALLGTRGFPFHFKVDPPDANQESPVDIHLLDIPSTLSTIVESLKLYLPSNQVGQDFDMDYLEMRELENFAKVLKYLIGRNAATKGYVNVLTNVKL

[2] = target: T1, SfSTING (Sphingobacterium faecium TIR–STING); assay: fluorescence NADase assay; type: biochemical; settings: 500 uM substrate; 20 uM c-di-GMP activator; 20 mM HEPES-KOH pH 7.5, 100 mM KCl
[3] = target: the molecule itself; assay: cryo-EM structure; SfSTING 1 mg/ml rapidly mixed with 3× molar 3′,3′-cGAMP (84 μM), a weakly activating ligand; dimers to short oligomers
[4] = target: the molecule itself; assay: cryo-EM structure; SfSTING 1 mg/ml rapidly mixed with 3× molar c-di-GMP (84 μM), frozen within 10 s, 4 °C; second dataset pre-incubated with 1 mM benzamide adenine dinucleotide; dimers to filament (single and antiparallel double filaments)
[5] = target: the molecule itself; assay: negative-stain EM; 1 μM wild-type or mutant SfSTING with 10 μM c-di-GMP, 20 mM HEPES-KOH pH 7.5, 250 mM KCl, 1 mM TCEP, 15 min on ice; dimers to filament

With `Nc1nc2c(ncn2[C@@H]2O[C@@H]3COP(=O)(O)O[C@H]4[C@@H](O)[C@H](n5cnc6c(=O)[nH]c(N)nc65)O[C@@H]4COP(=O)(O)O[C@H]3[C@H]2O)c(=O)[nH]1` [c-di-GMP] the “cryo-EM structure; EMSA” value [1] was “cryo-EM density map of the active SfSTING–c-di-GMP filament complex”.

With `NC(=O)c1ccc[n+]([C@@H]2O[C@H](COP(=O)(O)OP(=O)(O)OC[C@H]3O[C@@H](n4cnc5c4ncn4ccnc54)[C@H](O)[C@@H]3O)[C@@H](O)[C@H]2O)c1` [nicotinamide 1,N^6-ethenoadenine dinucleotide] the “fluorescence NADase assay” value [2] was “WT* and E95Q* mutant SfSTING consume the ε-NAD substrate within the deadtime”.

B1: Sphingobacterium faecium TIR–STING (SfSTING), wild type (enzyme, UniProt A0A2T5Y4G4 1-323, looked up)
chain: T1 sequence (A0A2T5Y4G4 1-323)
notes: TIR–STING antiphage effector of the S. faecium CBASS operon; also called WT; source: E. coli BL21-CodonPlus(DE3)-RIL, purified (Ni-NTA, Superdex 200 SEC)
With B1 the “stoichiometry N” value [3] was 4 to 6 units (dimers) and the “stoichiometry N” value [4] was roughly 85 dimer copies.

B2: SfSTING D110A (enzyme, Sphingobacterium faecium, UniProt A0A2T5Y4G4 1-323, looked up)
chain: T1 sequence (A0A2T5Y4G4 1-323) with D110A
notes: S. faecium TIR–STING (SfSTING) with a substitution of the TIR DD-loop residue that completes the active site of the dimer mate; Mutant of m1; same vector and purification; also called intradimeric contact mutant; source: E. coli BL21-CodonPlus(DE3)-RIL, purified (Ni-NTA, Superdex 200 SEC)
B2: binds [5].

B3: SfSTING ΔA36–K41 (TIR BB loop replaced by a glycine-serine linker, D35-GSGG-S42) (enzyme, Sphingobacterium faecium, UniProt A0A2T5Y4G4 1-323, looked up)
chain: MKKRIFIGSSSEQLTILNEIVDLLGDDVECIPWTDGSGGSGLDSLIKQTRLADYSILIATKDDLTKQRGESLTKPRDNVVFEFGLFLGAAGPEKCYLIAEEDTDLPTDLDGITVAKFTRNSGQYNSLDKIVESIRTHLVKIAEMSQLGLLPSTALAIGYYNSFIKRVCEEIHGSECVELEGKKIKVKSFRVDVVIPETLDDNGVGNFTTLYNKRYGLSKATTCTNPALLGTRGFPFHFKVDPPDANQESPVDIHLLDIPSTLSTIVESLKLYLPSNQVGQDFDMDYLEMRELENFAKVLKYLIGRNAATKGYVNVLTNVKL
notes: S. faecium TIR–STING (SfSTING) in which residues A36–K41 of the TIR BB loop are replaced by GSGG (D35-GSGG-S42); Mutant of m1; also called TIR-to-TIR cross-filament contact mutant; SfSTING TIR mutant; source: E. coli BL21-CodonPlus(DE3)-RIL, purified (Ni-NTA, Superdex 200 SEC)
B3: binds [5].
